Results: IntAct's records for PubMed 20708156

B1: F-box/WD repeat-containing protein 1A (Homo sapiens), Q9Y297 (parent)
chain: MDPAEAVLQEKALKFMCSMPRSLWLGCSSLADSMPSLRCLYNPGTGALTAFQNSSEREDCNNGEPPRKIIPEKNSLRQTYNSCARLCLNQETVCLASTAMKTENCVAKTKLANGTSSMIVPKQRKLSASYEKEKELCVKYFEQWSESDQVEFVEHLISQMCHYQHGHINSYLKPMLQRDFITALPARGLDHIAENILSYLDAKSLCAAELVCKEWYRVTSDGMLWKKLIERMVRTDSLWRGLAERRGWGQYLFKNKPPDGNAPPNSFYRALYPKIIQDIETIESNWRCGRHSLQRIHCRSETSKGVYCLQYDDQKIVSGLRDNTIKIWDKNTLECKRILTGHTGSVLCLQYDERVIITGSSDSTVRVWDVNTGEMLNTLIHHCEAVLHLRFNNGMMVTCSKDRSIAVWDMASPTDITLRRVLVGHRAAVNVVDFDDKYIVSASGDRTIKVWNTSTCEFVRTLNGHKRGIACLQYRDRLVVSGSSDNTIRLWDIECGACLRVLEGHEELVRCIRFDNKRIVSGAYDGKIKVWDLVAALDPRAPAGTLCLRTLVEHSGRVFRLQFDEFQIVSSSHDDTILIWDFLNDPAAQAEPPRSPSRTYTYISR

Variants of: B1
Conditions: with mdm2_human MDM2, Q00987
Sequence of mdm2_human MDM2, Q00987 (Q00987 whole entry, looked up): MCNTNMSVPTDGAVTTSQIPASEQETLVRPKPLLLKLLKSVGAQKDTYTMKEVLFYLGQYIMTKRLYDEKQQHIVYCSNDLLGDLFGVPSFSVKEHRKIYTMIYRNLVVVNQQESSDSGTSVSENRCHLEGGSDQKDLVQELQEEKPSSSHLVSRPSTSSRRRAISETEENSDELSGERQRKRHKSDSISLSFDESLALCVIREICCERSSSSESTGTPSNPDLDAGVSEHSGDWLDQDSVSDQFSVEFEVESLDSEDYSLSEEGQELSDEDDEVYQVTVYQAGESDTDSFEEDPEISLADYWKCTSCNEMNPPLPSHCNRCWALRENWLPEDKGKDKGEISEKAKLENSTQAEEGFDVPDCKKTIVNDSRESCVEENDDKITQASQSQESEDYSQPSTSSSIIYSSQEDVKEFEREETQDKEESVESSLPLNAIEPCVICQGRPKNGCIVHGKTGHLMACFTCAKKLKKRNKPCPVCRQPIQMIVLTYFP

Variant	effect of a mutation on the interaction
R475A	decreasing interaction
